Here are results for three molecules from patent US20160053025A1 (SAMSUNG ELECTRONICS, published 2016).

Assay [1] addresses T1, BSA (Bos taurus, UniProt P02769).
T1 construct: commercial preparation; also called Bovine serum albumin; Sigma
Nature of the assay: Complex ELISA: plate coated with BSA, FLAG-Ang2 0.25 ug/ml shown by 10D6 2 ug/ml and anti-mouse IgG-HRP, OD450. The method, then:
(§1) A 96-well MaxiSorp™ flat-bottom plate (Nunc) was coated with 4 μg/ml of Tie2-Fc (R&D systems) or BSA (Sigma). Then, the plate was washed five times with 0.05% (v/v) Tween-20-containing PBS (Phosphate Buffer Saline) and blocked with 1% (v/v) BSA (Bovine serum albumin; Sigma)-containing PBS at a room temperature for 2 hours. 0.25 μg/ml of Ang2 and 2 μg/ml of 10D6 antibody were added to each well of the plate, which was allowed to react at a room temperature for 2 hours and then washed five times with PBST. After that, an anti-mouse IgG antibody (Sigma) conjugated with HRP diluted in 1% (v/v) BSA-containing PBS at a ratio of 1:5,000 (v/v) was added in an amount of 100 ul to each well to react at a room temperature for 1 hour and then, the plate was washed five times with PBST. Lastly, 100 ul (microliter) of TMB substrate (Cell Signaling) was added to each well of the plate to induce color development for 3 min. and then, the reaction was ceased by the addition of 100 ul of Stop solution (Cell Signaling) and OD450 values were measured on a plate reader (Molecular Devices).
(An ELISA detects its analyte on a solid surface through an enzyme-linked reagent.)

Assay [2] has as its target T2, hTie2-Fc (R&D Systems) (human, UniProt Q02763 23-745).
T2 construct: Bought fusion protein; also called hTie-2/Fc fusion protein; not shown: Fc of human IgG1
Briefly: ELISA, Tie2-Fc coated, Ang2 and 10D6 added, detected with anti-mouse IgG-HRP. The method, then:
as §1

In assay [3] the target is T3, recombinant hAng-2 (C-His, R&D Systems) (human, UniProt O15123 19-496).
T3 construct: Bought protein; also called human Ang-2 protein; C-terminal histidine-tagged human Ang2 (R&D Systems); not shown: C-terminal His tag
T3 sequence: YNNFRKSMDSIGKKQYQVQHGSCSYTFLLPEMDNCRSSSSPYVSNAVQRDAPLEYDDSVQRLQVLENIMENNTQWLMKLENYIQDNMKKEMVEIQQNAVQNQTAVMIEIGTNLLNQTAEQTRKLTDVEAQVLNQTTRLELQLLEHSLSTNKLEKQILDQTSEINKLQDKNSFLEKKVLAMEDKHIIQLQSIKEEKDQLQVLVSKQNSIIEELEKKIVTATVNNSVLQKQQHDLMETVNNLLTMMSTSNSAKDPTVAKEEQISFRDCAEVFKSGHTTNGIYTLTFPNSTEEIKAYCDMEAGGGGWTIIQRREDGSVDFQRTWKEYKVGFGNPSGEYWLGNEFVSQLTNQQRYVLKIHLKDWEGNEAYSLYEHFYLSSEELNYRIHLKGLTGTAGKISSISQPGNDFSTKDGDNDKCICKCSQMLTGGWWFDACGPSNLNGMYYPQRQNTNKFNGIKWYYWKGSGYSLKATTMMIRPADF
Briefly: SPR, Biacore T100; C-terminal His-tagged human Ang2 captured by anti-histidine antibody on CM5, MA01 as analyte. The procedure: The binding affinity of the anti-c-Met/anti-Ang2 bispecific antibody prepared in Example 1 to Ang2 was measured using Biacore T100(GE). For this, an anti-histidine antibody (R&D Systems) was fixed on the surface of CM5 chip (#BR-1005-30, GE) according to manufacturer's manual. C-terminal histidine-tagged human Ang2 (R&D Systems) was captured and then, anti-c-Met/anti-Ang2 bispecific antibody MA01 was added to the captured antigen (Ang2) at various concentrations. Hereto, 10 mM Glycine-HCl (pH 1.5) solution was added, to regenerate the surface. To measure the affinity, the above obtained data were fitted using BIAevaluation software (GE Healthcare, Biacore T100 evaluation software).
Background: SPR reads the build-up and loss of mass on a sensor chip optically.

The target of assay [4] is T4, c-Met-Fc (#358-MT/CF, R&D Systems) (human, UniProt P08581 25-932).
T4 construct: also called human c-Met/Fc fusion protein (R&D Systems); human c-Met/Fc protein; not shown: Fc part
Nature of the assay: SPR, Biacore T100; bispecific antibody captured by human Fab binder on CM5, c-Met-Fc as analyte. The procedure: The binding affinity of the anti-c-Met/anti-Ang2 bispecific antibody prepared in Example 1 to c-Met was measured using Biacore T100(GE). For this, a human Fab binder (#28-9583-25, GE Healthcare) was fixed on the surface of CM5 chip (#BR-1005-30, GE) according to manufacturer's manual. About 90˜120 RU of the anti-c-Met/anti-Ang2 bispecific antibody was captured and then, c-Met-Fc (#358-MT/CF, R&D Systems) was added to the captured antibody at various concentrations. Hereto, 10 mM Glycine-HCl (pH 1.5) solution was added, to regenerate the surface. To measure the affinity, the above obtained data were fitted using BIAevaluation software (GE Healthcare, Biacore T100 evaluation software).

T4 sequence (P08581 25-932 limits assumed): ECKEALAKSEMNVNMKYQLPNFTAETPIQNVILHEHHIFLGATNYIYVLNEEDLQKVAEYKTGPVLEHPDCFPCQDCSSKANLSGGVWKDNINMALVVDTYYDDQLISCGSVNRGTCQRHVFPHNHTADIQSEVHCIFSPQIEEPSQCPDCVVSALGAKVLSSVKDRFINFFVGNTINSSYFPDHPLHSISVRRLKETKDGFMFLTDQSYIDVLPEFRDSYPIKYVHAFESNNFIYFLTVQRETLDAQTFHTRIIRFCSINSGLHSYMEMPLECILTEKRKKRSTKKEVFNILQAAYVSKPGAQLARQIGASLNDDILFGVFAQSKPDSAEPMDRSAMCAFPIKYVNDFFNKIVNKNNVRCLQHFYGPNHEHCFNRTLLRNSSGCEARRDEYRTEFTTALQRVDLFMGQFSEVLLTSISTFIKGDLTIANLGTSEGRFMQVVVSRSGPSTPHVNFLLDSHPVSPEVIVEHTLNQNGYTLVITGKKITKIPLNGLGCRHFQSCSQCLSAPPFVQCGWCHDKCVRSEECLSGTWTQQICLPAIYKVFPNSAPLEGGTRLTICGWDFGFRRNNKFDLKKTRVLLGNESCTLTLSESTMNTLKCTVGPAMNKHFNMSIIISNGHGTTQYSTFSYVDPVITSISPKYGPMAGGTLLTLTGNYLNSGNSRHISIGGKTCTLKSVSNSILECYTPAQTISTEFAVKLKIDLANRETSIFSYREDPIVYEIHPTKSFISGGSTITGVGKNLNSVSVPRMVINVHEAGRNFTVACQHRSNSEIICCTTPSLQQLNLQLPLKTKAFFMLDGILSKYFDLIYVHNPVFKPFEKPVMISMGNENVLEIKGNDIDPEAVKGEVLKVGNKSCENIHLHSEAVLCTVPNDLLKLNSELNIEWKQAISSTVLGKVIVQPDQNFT
T2 sequence (Q02763 23-745 limits assumed): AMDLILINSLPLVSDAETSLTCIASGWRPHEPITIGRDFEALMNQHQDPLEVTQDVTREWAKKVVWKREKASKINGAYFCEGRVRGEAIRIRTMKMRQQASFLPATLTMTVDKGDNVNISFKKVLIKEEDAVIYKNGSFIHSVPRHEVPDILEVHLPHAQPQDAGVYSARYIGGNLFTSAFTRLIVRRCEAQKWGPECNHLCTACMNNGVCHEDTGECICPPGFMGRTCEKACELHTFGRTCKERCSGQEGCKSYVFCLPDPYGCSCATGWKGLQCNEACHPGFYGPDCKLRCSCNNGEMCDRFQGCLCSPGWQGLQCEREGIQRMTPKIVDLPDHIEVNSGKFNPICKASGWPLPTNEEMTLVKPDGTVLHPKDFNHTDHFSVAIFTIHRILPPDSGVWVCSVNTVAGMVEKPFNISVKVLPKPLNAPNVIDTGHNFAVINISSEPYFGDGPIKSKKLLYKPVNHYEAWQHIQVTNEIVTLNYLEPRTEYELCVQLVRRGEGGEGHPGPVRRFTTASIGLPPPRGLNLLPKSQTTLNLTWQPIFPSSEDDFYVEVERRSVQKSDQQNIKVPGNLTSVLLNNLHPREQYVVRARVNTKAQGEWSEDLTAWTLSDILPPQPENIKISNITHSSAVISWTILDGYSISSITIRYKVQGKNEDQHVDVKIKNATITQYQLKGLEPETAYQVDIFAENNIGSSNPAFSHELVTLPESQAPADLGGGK
T1 sequence (P02769 25-607 limits assumed): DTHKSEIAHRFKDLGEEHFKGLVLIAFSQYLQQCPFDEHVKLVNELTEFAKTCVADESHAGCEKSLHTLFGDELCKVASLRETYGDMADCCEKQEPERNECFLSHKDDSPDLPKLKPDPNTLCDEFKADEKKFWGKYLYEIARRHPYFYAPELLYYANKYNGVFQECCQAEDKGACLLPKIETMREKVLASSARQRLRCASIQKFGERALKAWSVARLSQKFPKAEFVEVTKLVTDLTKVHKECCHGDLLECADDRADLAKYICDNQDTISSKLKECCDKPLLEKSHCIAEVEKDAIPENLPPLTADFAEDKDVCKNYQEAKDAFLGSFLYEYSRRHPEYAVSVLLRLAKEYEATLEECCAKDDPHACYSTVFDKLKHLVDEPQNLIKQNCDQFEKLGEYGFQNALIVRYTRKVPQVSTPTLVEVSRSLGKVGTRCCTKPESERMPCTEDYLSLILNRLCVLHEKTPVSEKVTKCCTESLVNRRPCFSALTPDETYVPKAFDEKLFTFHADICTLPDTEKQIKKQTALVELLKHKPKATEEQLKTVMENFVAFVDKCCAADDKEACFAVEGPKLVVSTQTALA

B1: FLAG-tagged hAng-2 (ligand)
chain: T3 sequence
notes: not shown: FLAG tag
For the molecule B1, in assay [1], the binding result was “no binding (tested: 0.25 ug/ml)”.

B2: Ang2 protein (R&D systems) (ligand)
chain: T3 sequence
notes: Ang2 as used in the hybridoma screen, the HUVEC assays and the complex ELISA; also called human Ang2 protein; Human Ang-2 protein
Consider B2, for which, in assay [2], the binding result was “binds”.

B3: anti-c-Met/anti-Ang2 bispecific antibody MA01 (bispecific antibody, human IgG2, kappa)
heavy: EVQLVESGGGLVQPGGSLRLSCAASGFTFTDYYMSWVRQAPGKGLEWLGFIRNKANGYTTEYSASVKGRFTISRDNSKNTLYLQMNSLRAEDTAVYYCARDNWFAYWGQGTLVTVSSASTKGPSVFPLAPCSRSTSESTAALGCLVKDYFPEPVTVSWNSGALTSGVHTFPAVLQSSGLYSLSSVVTVPSSNFGTQTYTCNVDHKPSNTKVDKTVERKCCVECPPCPAPPVAGPSVFLFPPKPKDTLMISRTPEVTCVVVDVSHEDPEVQFNWYVDGVEVHNAKTKPREEQFNSTFRVVSVLTVVHQDWLNGKEYKCKVSNKGLPAPIEKTISKTKGQPREPQVYTLPPSREEMTKNQVSLTCLVKGFYPSDIAVEWESNGQPENNYKTTPPMLDSDGSFFLYSKLTVDKSRWQQGNVFSCSVMHEALHNHYTQKSLSLSPGKGGGGSGGGGSQVQLQESGPGLVKPSETLSLTCAVSGYSITSDYAWNWIRQPPGKGLEWMGKISYSGKTDYNPSLKSRSTISRDTSKNQFSLKLSSVTAADTAVYYCARGNFEGAMDYWGQGTLVTVSSGGGGSGGGGSGGGGSDIQMTQSPSSLSASVGDRVTITCKASQSVSNDVAWYQQKPGKAPKLLIYYASNRYPGVPSRFSGSGSGTDFTLTISSLQPEDFATYYCQQDYSSPWTFGGGTKLEIK
light: DIQMTQSPSSLSASVGDRVTITCKSSQSLLASGNQNNYLAWYQQKPGKAPKMLIIWASTRVSGVPSRFSGSGSGTDFTLTISSLQPEDFATYYCQQSYSRPYTFGQGTKVEIKRTVAAPSVFIFPPSDEQLKSGTASVVCLLNNFYPREAKVQWKVDNALQSGNSQESVTEQDSKDSTYSLSSTLTLSKADYEKHKVYACEVTHQGLSSPVTKSFNRGEC
With B3, in assay [3], the Kd (in general, the constant that tells how readily two partners part at equilibrium) was 71.6 nM; the koff (as a rule, a measure of how fast the partners let go of each other) was found to be 0.00648 s⁻¹; the on-rate (kon) (as a rule, the rate constant with which the complex forms) was 90500 M⁻¹ s⁻¹. Besides, the affinity in assay [4], expressed as Kd, was 0.07 nM.
